This note sets out measurements from article doi:10.1101/2021.01.21.427698 (bioRxiv, 2021).

First the molecules themselves.
B1: human SEPT2 with a TEV-cleavable N-terminal His6-tag (natural protein)
chain: MSKQQPTQFINPETPGYVGFANLPNQVHRKSVKKGFEFTLMVVGESGLGKSTLINSLFLTDLYPERVIPGAAEKIERTVQIEASTVEIEERGVKLRLTVVDTPGYGDAINCRDCFKTIISYIDEQFERYLHDESGLNRRHIIDNRVHCCFYFISPFGHGLKPLDVAFMKAIHNKVNIVPVIAKADTLTLKERERLKKRILDEIEEHNIKIYHLPDAESDEDEDFKEQTRLLKASIPFSVVGSNQLIEAKGKKVRGRLYPWGVVEVENPEHNDFLKLRTMLITHMQDLQEVTQDLHYENFRSERLKRGGRKVENEDMNKDQILLEKEAELRRMQEMIARMQAQMQMQMQGGDGDGGALGHHV
B2: SEPT2-msfGFP human septin octamers containing SEPT9_i1 (complex)
chain 1: B1 chain
chain 2: MAATDIARQVGEGCRTVPLAGHVGFDSLPDQLVNKSVSQGFCFNILCVGETGLGKSTLMDTLFNTKFEGEPATHTQPGVQLQSNTYDLQESNVRLKLTIVSTVGFGDQINKEDSYKPIVEFIDAQFEAYLQEELKIRRVLHTYHDSRIHVCLYFIAPTGHSLKSLDLVTMKKLDSKVNIIPIIAKADAISKSELTKFKIKITSELVSNGVQIYQFPTDDESVAEINGTMNAHLPFAVIGSTEELKIGNKMMRARQYPWGTVQVENEAHCDFVKLREMLIRVNMEDLREQTHTRHYELYRRCKLEEMGFKDTDPDSKPFSLQETYEAKRNEFLGELQKKEEEMRQMFVQRVKEKEAELKEAEKELHEKFDRLKKLHQDEKKKLEDKKKSLDDEVNAFKQRKTAAELLQSQGSQAGGSQTLKRDKEKKN
chain 3: MSVSARSAAAEERSVNSSTMVAQQKNLEGYVGFANLPNQVYRKSVKRGFEFTLMVVGESGLGKSTLINSLFLTDLYSPEYPGPSHRIKKTVQVEQSKVLIKEGGVQLLLTIVDTPGFGDAVDNSNCWQPVIDYIDSKFEDYLNAESRVNRRQMPDNRVQCCLYFIAPSGHGLKPLDIEFMKRLHEKVNIIPLIAKADTLTPEECQQFKKQIMKEIQEHKIKIYEFPETDDEEENKLVKKIKDRLPLAVVGSNTIIEVNGKRVRGRQYPWGVAEVENGEHCDFTILRNMLIRTHMQDLKDVTNNVHYENYRSRKLAAVTYNGVDNNKNKGQLTKSPLAQMEEERREHVAKMKKMEMEMEQVFEMKVKEKVQKLKDSEAELQRRHEQMKKNLEAQHKELEEKRRQFEDEKANWEAQQRILEQQNSSRTLEKNKKKGKIF
chain 4: MKKSYSGGTRTSSGRLRRLGDSSGPALKRSFEVEEVETPNSTPPRRVQTPLLRATVASSTQKFQDLGVKNSEPSARHVDSLSQRSPKASLRRVELSGPKAAEPVSRRTELSIDISSKQVENAGAIGPSRFGLKRAEVLGHKTPEPAPRRTEITIVKPQESAHRRMEPPASKVPEVPTAPATDAAPKRVEIQMPKPAEAPTAPSPAQTLENSEPAPVSQLQSRLEPKPQPPVAEATPRSQEATEAAPSCVGDMADTPRDAGLKQAPASRNEKAPVDFGYVGIDSILEQMRRKAMKQGFEFNIMVVGQSGLGKSTLINTLFKSKISRKSVQPTSEERIPKTIEIKSITHDIEEKGVRMKLTVIDTPGFGDHINNENCWQPIMKFINDQYEKYLQEEVNINRKKRIPDTRVHCCLYFIPATGHSLRPLDIEFMKRLSKVVNIVPVIAKADTLTLEERVHFKQRITADLLSNGIDVYPQKEFDEDSEDRLVNEKFREMIPFAVVGSDHEYQVNGKRILGRKTKWGTIEVENTTHCEFAYLRDLLIRTHMQNIKDITSSIHFEAYRVKRLNEGSSAMANGVEEKEPEAPEM
B3: SEPT2-msfGFP human septin hexamers (complex)
chain 1: B1 chain
chain 2: B2 chain 2
chain 3: B2 chain 3
B4: human SEPT9_i1 with a TEV-cleavable C-terminal Strep-tag-II (natural protein)
chain: B2 chain 4
B5: human SEPT6 (natural protein)
chain: B2 chain 2
B6: human SEPT9_i3 with a TEV-cleavable C-terminal Strep-tag-II (natural protein)
chain: MERDRISALKRSFEVEEVETPNSTPPRRVQTPLLRATVASSTQKFQDLGVKNSEPSARHVDSLSQRSPKASLRRVELSGPKAAEPVSRRTELSIDISSKQVENAGAIGPSRFGLKRAEVLGHKTPEPAPRRTEITIVKPQESAHRRMEPPASKVPEVPTAPATDAAPKRVEIQMPKPAEAPTAPSPAQTLENSEPAPVSQLQSRLEPKPQPPVAEATPRSQEATEAAPSCVGDMADTPRDAGLKQAPASRNEKAPVDFGYVGIDSILEQMRRKAMKQGFEFNIMVVGQSGLGKSTLINTLFKSKISRKSVQPTSEERIPKTIEIKSITHDIEEKGVRMKLTVIDTPGFGDHINNENCWQPIMKFINDQYEKYLQEEVNINRKKRIPDTRVHCCLYFIPATGHSLRPLDIEFMKRLSKVVNIVPVIAKADTLTLEERVHFKQRITADLLSNGIDVYPQKEFDEDSEDRLVNEKFREMIPFAVVGSDHEYQVNGKRILGRKTKWGTIEVENTTHCEFAYLRDLLIRTHMQNIKDITSSIHFEAYRVKRLNEGSSAMANGVEEKEPEAPEM

The data set “human SEPT6” concerns the target B5. Description: two-tag affinity co-purification of co-expressed proteins.
Data set [1] concerns the molecule itself. Description: negative-stain electron microscopy of septin polymerisation.
Data set [2] concerns the molecule itself. The data set can be described thus: spinning disk fluorescence microscopy of septin polymerisation.
The data set “native gel or EMSA” concerns the molecule itself. The data set can be described thus: native gel or EMSA. (In general: A gel shift assay detects complexes by their altered migration in electrophoresis.)
In data set [3] the target is B1.

B1: the binding result with human SEPT6 was “binds”.
In the case of B2, the binding result in data set [1] and in data set [2] was “binds” in each case.
As for B3, the binding result in data set [1] and in data set [2] was “binds” in each case.
Turning to B4, the binding result in “native gel or EMSA” is “binds”.
One may read the stoichiometry N as a count of units in the complex or per binding partner. For the molecule B5, the “stoichiometry N” value in data set [3] was found to be 1.
In the case of B6, the binding result in the data set “native gel or EMSA” was “binds”.
